Experiment [1] has as its target hERG ΔPAS-citrine channel (hERG core channel), S620T (human) (UniProt Q12809). Nature of the experiment: FRET or BRET. (BRET reads energy transfer from a luciferase to a nearby fluorophore.)
For experiment [2], the target named is hERG F860A core channel (hERG ΔPAS F860A-citrine, S620T) (human) (UniProt Q12809). As to the kind of experiment: FRET or BRET.

On to “hERG PAS domain fused to cyan fluorescent protein (hERG PAS-CFP) (from UniProt Q12809 1-135) (domain or fragment)”, for which, in experiment [1], the Ratio A − Ratio A0 (proportional to FRET efficiency) is 0.2. For the same substance, in experiment [2], the Ratio A – Ratio A0 (proportional to FRET efficiency) was 0.09.
